# Data taken from article PMC5887453 (Nucleic Acids Research, 2018).
# T1: Pyrococcus horikoshii elongation factor 2 (PhoEF-2), wild type (Pyrococcus horikoshii, UniProt O59521 1-732)
# T1 sequence (looked up): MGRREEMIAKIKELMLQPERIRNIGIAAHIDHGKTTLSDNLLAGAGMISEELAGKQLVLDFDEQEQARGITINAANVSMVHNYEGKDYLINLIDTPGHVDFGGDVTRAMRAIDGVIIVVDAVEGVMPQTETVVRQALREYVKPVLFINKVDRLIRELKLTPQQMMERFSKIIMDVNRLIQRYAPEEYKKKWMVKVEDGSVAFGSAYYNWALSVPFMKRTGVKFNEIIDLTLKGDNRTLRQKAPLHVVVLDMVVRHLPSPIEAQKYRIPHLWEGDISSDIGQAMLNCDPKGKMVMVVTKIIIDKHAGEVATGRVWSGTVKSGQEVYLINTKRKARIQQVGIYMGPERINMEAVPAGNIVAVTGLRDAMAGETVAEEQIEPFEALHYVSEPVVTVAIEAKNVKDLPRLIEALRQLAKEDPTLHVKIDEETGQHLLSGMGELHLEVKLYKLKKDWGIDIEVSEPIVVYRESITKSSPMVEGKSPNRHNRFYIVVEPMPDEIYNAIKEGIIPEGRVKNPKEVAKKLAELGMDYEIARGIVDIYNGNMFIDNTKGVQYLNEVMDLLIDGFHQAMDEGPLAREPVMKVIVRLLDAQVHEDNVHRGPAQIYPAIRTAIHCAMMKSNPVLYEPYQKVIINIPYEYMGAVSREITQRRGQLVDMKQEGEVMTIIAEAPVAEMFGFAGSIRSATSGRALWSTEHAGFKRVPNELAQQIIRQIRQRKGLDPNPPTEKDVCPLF
# Target: T1, Pyrococcus horikoshii elongation factor …
# Assay: crystal structure
binder,measurement,value
"EALAGLSALFG [P1C11, peptide of the 11 C-terminal amino acids of P. horikoshii P1 (E98-G108)]",binding result,binds
